Measurements as given in the supplement of paper PMC11246515.
± gives the standard deviation of the averaged measurements.

Assay: total protein half-life in vivo (active degradation + dilution); higher = more stable protein
[1] = E. coli NCM3722 delta-clpP delta-lon delta-hslV, growth: N-lim chemostat, doubling time 6 h
[2] = E. coli NCM3722 delta-clpP, growth: N-lim chemostat, doubling time 6 h
[3] = E. coli NCM3722 delta-hslV, growth: N-lim chemostat, doubling time 6 h
[4] = E. coli NCM3722 delta-lon, growth: N-lim chemostat, doubling time 6 h
[5] = E. coli NCM3722 delta-smpB, growth: N-lim chemostat, doubling time 6 h
[6] = wild type E. coli NCM3722, growth: C-lim chemostat, doubling time 3 h
[7] = wild type E. coli NCM3722, growth: C-lim chemostat, doubling time 6 h
[8] = wild type E. coli NCM3722, growth: C-lim chemostat, doubling time 12 h
[9] = wild type E. coli NCM3722, growth: N-lim chemostat, doubling time 6 h
[10] = wild type E. coli NCM3722, growth: N-lim chemostat, doubling time 12 h
[11] = wild type E. coli NCM3722, growth: P-lim chemostat, doubling time 6 h
[12] = wild type E. coli NCM3722, growth: P-lim chemostat, doubling time 12 h

Sequence	total protein half-life in vivo [1]	total protein half-life in vivo [2]	total protein half-life in vivo [3]	total protein half-life in vivo [4]	total protein half-life in vivo [5]	total protein half-life in vivo [6]	total protein half-life in vivo [7]	total protein half-life in vivo [8]	total protein half-life in vivo [9]	total protein half-life in vivo [10]	total protein half-life in vivo [11]	total protein half-life in vivo [12]
MKGRWVKYLLMGTVVAMLAACSSKPTDRGQQYKDGKFTQPFSLVNQPDAVGAPINAGDFAEQINHIRNSSPRLYGNQSNVYNAVQEWLRAGGDTRNMRQFGIDAWQMEGADNYGNVQFTGYYTPVIQARHTRQGEFQYPIYRMPPKRGRLPSRAEIYAGALSDKYILAYSNSLMDNFIMDVQGSGYIDFGDGSPLNFFSYAGKNGHAYRSIGKVLIDRGEVKKEDMSMQAIRHWGETHSEAEVRELLEQNPSFVFFKPQSFAPVKGASAVPLVGRASVASDRSIIPPGTTLLAEVPLLDNNGKFNGQYELRLMVALDVGGAIKGQHFDIYQGIGPEAGHRAGWYNHYGRVWVLKTAPGAGNVFSG [P0A935]	5.19 ± 1.9 h	4.22 ± 0.17 h	3.87 ± 0.69 h	4.05 ± 0.22 h	3 ± 0.41 h	1.877 ± 0.013 h	2.8 ± 0.13 h	4.23 ± 0.38 h	2.99 ± 0.4 h	3.79 ± 0.35 h	3.7 ± 0.37 h	6.57 ± 0.27 h
MKHDHFVVQSPDKPAQQLLLLFHGVGDNPVAMGEIGNWFAPLFPDALVVSVGGAEPSGNPAGRQWFSVQGITEDNRQARVDAIMPTFIETVRYWQKQSGVGANATALIGFSQGAIMVLESIKAEPGLASRVIAFNGRYASLPETASTATTIHLIHGGEDPVIDLAHAVAAQEALISAGGDVTLDIVEDLGHAIDNRSMQFALDHLRYTIPKHYFDEALSGGKPGDDDVIEMM	4.732 ± 0.016 h		2.76 ± 0.035 h	3.46 ± 0.23 h	2.67 ± 0.22 h	3.16 ± 0.45 h	6.03 ± 2.2 h	5.97 ± 1.4 h	2.93 ± 0.19 h	3.93 ± 0.66 h	4.46 ± 0.27 h	6.94 ± 0.16 h
MKHGIKALLITLSLACAGMSHSALAAASVAKPTAVETKAEAPAAQSKAAVPAKASDEEGTRVSINNASAEELARAMNGVGLKKAQAIVSYREEYGPFKTVEDLKQVPGMGNSLVERNLAVLTL [P0AAR8]								3.36 h				
MKHTVEVMIPEAEIKARIAELGRQITERYKDSGSDMVLVGLLRGSFMFMADLCREVQVSHEVDFMTASSYGSGMSTTRDVKILKDLDEDIRGKDVLIVEDIIDSGNTLSKVREILSLREPKSLAICTLLDKPSRREVNVPVEFIGFSIPDEFVVGYGIDYAQRYRHLPYIGKVILLDE [P0A9M2]	4.48 ± 0.22 h	4.53 ± 0.57 h	4.14 ± 0.16 h	5.16 ± 0.72 h	4.08 ± 0.22 h	2.88 ± 0.16 h	4.78 ± 1.6 h	9.38 ± 0.47 h	4.126 ± 0.012 h	7.29 ± 0.7 h	5.5 ± 0.17 h	12.9 ± 1.8 h
MKIAFIGEAVSGFGGMETVIRDVITTFRQQHIQSEMFFFCRNDKMDKGWLEGIKYSCSFSNIRLGFLRRAKHIHALSKWLQEYQPDIVICIDVISCLFAAKARKKSGIDMPVFSWPHFSLDHKKHAEYITCADYHLAISSGIKQQMINRGVAESTINVIFNPVETKDSVIPAPEEGETATFIYVGRMKFEGQKRVKDLLDGLSQAKGNWKLHVLGDGSDFEKCQAYGRELNIDDRIVWYGWQQYPWELVQQDIEKVSALLLTSSFEGFPMTLLEALSWGIPCISADCVSGPADIIQPDVNGHLYQPGDIAGFVTLLNKYIAGEIHIEHEKIPASIDEFYQSKYYDRLHKVIISAISRRK	5.73 ± 0.45 h			6.05 ± 0.67 h	5.9 ± 0.06 h	2.96 ± 0.11 h		10.9 ± 0.65 h	6.03 ± 1.8 h	12.1 ± 1.4 h	6.21 ± 0.58 h	11.8 ± 0.7 h
MKIAILSRDGTLYSCKRLREAAIQRGHLVEILDPLSCYMNINPAASSIHYKGRKLPHFDAVIPRIGTAITFYGTAALRQFEMLGSYPLNESVAIARARDKLRSMQLLARQGIDLPVTGIAHSPDDTSDLIDMVGGAPLVVKLVEGTQGIGVVLAETRQAAESVIDAFRGLNAHILVQEYIKEAQGCDIRCLVVGDEVVAAIERRAKEGDFRSNLHRGGAASVASITPQEREIAIKAARTMALDVAGVDILRANRGPLVMEVNASPGLEGIEKTTGIDIAGKMIRWIERHATTEYCLKTGG [P0C0U4]		4.13 ± 0.23 h	3.76 ± 0.12 h	4.31 ± 0.27 h	3.78 ± 0.36 h	2.85 ± 0.062 h	5.3 ± 0.24 h	10.9 ± 0.29 h	3.77 ± 0.19 h	6.029 ± 0.023 h	5.56 ± 0.65 h	
MKICLIDETGTGDGALSVLAARWGLEHDEDNLMALVLTPEHLELRKRDEPKLGGIFVDFVGGAMAHRRKFGGGRGEAVAKAVGIKGDYLPDVVDATAGLGRDAFVLASVGCRVRMLERNPVVAALLDDGLARGYADAEIGGWLQERLQLIHASSLTALTDITPRPQVVYLDPMFPHKQKSALVKKEMRVFQSLVGPDLDADGLLEPARLLATKRVVVKRPDYAPPLANVATPNAVVTKGHRFDIYAGTPV	6.34 ± 1.2 h	5.05 ± 0.67 h	5.29 h	5.92 ± 0.037 h	5.27 ± 0.32 h			11.1 ± 1 h	5.3 ± 0.28 h	11.5 ± 1.8 h		12.9 ± 0.86 h
MKIFLENLYHSDCYFLPIRDNQQVLVGVELITHFSSEDGTVRIPTSRVIAQLTEEQHWQLFSEQLELLKSCQHFFIQHKLFAWLNLTPQVATLLLERDNYAGELLKYPFIELLINENYPHLNEGKDNRGLLSLSQVYPLVLGNLGAGNSTMKAVFDGLFTRVMLDKSFIQQQITHRSFEPFIRAIQAQISPCCNCIIAGGIDTAEILAQITPFDFHALQGCLWPAVPINQITTLVQR	4.97 ± 0.65 h	4.111 ± 0.0084 h	3.897 ± 0.0064 h	4.44 ± 0.36 h	3.866 ± 0.031 h	2.99 ± 0.1 h	6.47 ± 1.4 h	9.89 h	4.22 ± 0.84 h	7.69 ± 1.8 h	5.87 ± 0.37 h	11.5 ± 0.35 h
